Sequences and labels used below:
B1: Ac*-F-V-S-T-T-S-(N-Me)F-B-(N-Me)A-D-R-P-C*-G-NH2 (peptide)
peptide: FVSTTSFXADRPCG
modifications: not fully specified; N-terminal acetyl (Ac*) joined by a sulfide bond to the side chain of Cys13 (cyclic); 7: L-(N-Me)Phe; 8: L-Bip; 9: L-(N-Me)Ala; C-terminal amide (NH2)
notes: also called 1-9; Ex. No. 1-9
B2: Ac*-F-V-D-T-T-S-(N-Me)A-B-(N-Me)A-K-S-P-C*-G-NH2 (peptide)
peptide: {CH2CO}-FVDTTS[NMeA][Bip][NMeA]KSPCG-NH2
modifications: thioether N-13
SMILES: CC(C)[C@@H]1NC(=O)[C@H](Cc2ccccc2)NC(=O)CSC[C@@H](C(=O)NCC(N)=O)NC(=O)[C@@H]2CCCN2C(=O)[C@H](CO)NC(=O)[C@H](CCCCN)NC(=O)[C@H](C)N(C)C(=O)[C@H](Cc2ccc(-c3ccccc3)cc2)NC(=O)[C@H](C)N(C)C(=O)[C@H](CO)NC(=O)[C@H]([C@@H](C)O)NC(=O)[C@H]([C@@H](C)O)NC(=O)[C@H](CC(=O)O)NC1=O
notes: also called 1-7; Ex. No. 1-7
B3: Ac*-F-V-D-T-T-S-(N-Me)F-(p-CF3)F-(N-Me)A-E-S-P-C*-G-NH2 (peptide)
peptide: {CH2CO}-FVDTTS[NMeF][Phe(4-CF3)][NMeA]ESPCG-NH2
modifications: thioether N-13
SMILES: CC(C)[C@@H]1NC(=O)[C@H](Cc2ccccc2)NC(=O)CSC[C@@H](C(=O)NCC(N)=O)NC(=O)[C@@H]2CCCN2C(=O)[C@H](CO)NC(=O)[C@H](CCC(=O)O)NC(=O)[C@H](C)N(C)C(=O)[C@H](Cc2ccc(C(F)(F)F)cc2)NC(=O)[C@H](Cc2ccccc2)N(C)C(=O)[C@H](CO)NC(=O)[C@H]([C@@H](C)O)NC(=O)[C@H]([C@@H](C)O)NC(=O)[C@H](CC(=O)O)NC1=O
notes: also called 1-6; Ex. No. 1-6
B4: Ac*-F-V-D-S-T-Y-(N-Me)A-B-(N-Me)A-N-H-P-C*-G-NH2 (peptide)
peptide: {CH2CO}-FVDSTY[NMeA][Bip][NMeA]NHPCG-NH2
modifications: thioether N-13
SMILES: CC(C)[C@@H]1NC(=O)[C@H](Cc2ccccc2)NC(=O)CSC[C@@H](C(=O)NCC(N)=O)NC(=O)[C@@H]2CCCN2C(=O)[C@H](Cc2c[nH]cn2)NC(=O)[C@H](CC(N)=O)NC(=O)[C@H](C)N(C)C(=O)[C@H](Cc2ccc(-c3ccccc3)cc2)NC(=O)[C@H](C)N(C)C(=O)[C@H](Cc2ccc(O)cc2)NC(=O)[C@H]([C@@H](C)O)NC(=O)[C@H](CO)NC(=O)[C@H](CC(=O)O)NC1=O
notes: also called 1-4; Ex. No. 1-4
B5: Ac*-F-V-S-T-T-B-(N-Me)A-B-(N-Me)A-D-S-P-C*-G-NH2 (peptide)
peptide: FVSTTXAXADSPCG
modifications: not fully specified; N-terminal acetyl (Ac*) joined by a sulfide bond to the side chain of Cys13 (cyclic); 6: L-Bip; 7: L-(N-Me)Ala; 8: L-Bip; 9: L-(N-Me)Ala; C-terminal amide (NH2)
notes: also called 1-8; Ex. No. 1-8
B6: Ac*-F-V-S-T-T-B-(N-Me)A-(3-F)F-(N-Me)A-D-R-P-C*-G-NH2 (peptide)
peptide: {CH2CO}-FVSTT[Bip][NMeA][Phe(3-F)][NMeA]DRPCG-NH2
modifications: thioether N-13
SMILES: CC(C)[C@@H]1NC(=O)[C@H](Cc2ccccc2)NC(=O)CSC[C@@H](C(=O)NCC(N)=O)NC(=O)[C@@H]2CCCN2C(=O)[C@H](CCCNC(=N)N)NC(=O)[C@H](CC(=O)O)NC(=O)[C@H](C)N(C)C(=O)[C@H](Cc2cccc(F)c2)NC(=O)[C@H](C)N(C)C(=O)[C@H](Cc2ccc(-c3ccccc3)cc2)NC(=O)[C@H]([C@@H](C)O)NC(=O)[C@H]([C@@H](C)O)NC(=O)[C@H](CO)NC1=O
notes: also called 1-15; Ex. No. 1-15
B7: Ac*-F-V-S-T-T-B-(N-Me)A-B-(N-Me)A-D-R-P-C*-G-NH2 (peptide)
peptide: {CH2CO}-FVSTT[Bip][NMeA][Bip][NMeA]DRPCG-NH2
modifications: thioether N-13
notes: also called 1-2; Ex. No. 1-2
B8: Ac*-F-V-S-T-T-(p-CF3)F-(N-Me)A-(p-CF3)F-(N-Me)A-E-R-P-C*-G-NH2 (peptide)
peptide: {CH2CO}-FVSTT[Phe(4-CF3)][NMeA][Phe(4-CF3)][NMeA]ERPCG-NH2
modifications: thioether N-13
SMILES: CC(C)[C@@H]1NC(=O)[C@H](Cc2ccccc2)NC(=O)CSC[C@@H](C(=O)NCC(N)=O)NC(=O)[C@@H]2CCCN2C(=O)[C@H](CCCNC(=N)N)NC(=O)[C@H](CCC(=O)O)NC(=O)[C@H](C)N(C)C(=O)[C@H](Cc2ccc(C(F)(F)F)cc2)NC(=O)[C@H](C)N(C)C(=O)[C@H](Cc2ccc(C(F)(F)F)cc2)NC(=O)[C@H]([C@@H](C)O)NC(=O)[C@H]([C@@H](C)O)NC(=O)[C@H](CO)NC1=O
notes: also called 1-11; Ex. No. 1-11
B9: Ac*-F-V-S-T-T-B-(N-Me)A-(3,4-diCl)F-(N-Me)A-D-R-P-C*-G-NH2 (peptide)
peptide: {CH2CO}-FVSTT[Bip][NMeA][Phe(3,4-Cl2)][NMeA]DRPCG-NH2
modifications: thioether N-13
SMILES: CC(C)[C@@H]1NC(=O)[C@H](Cc2ccccc2)NC(=O)CSC[C@@H](C(=O)NCC(N)=O)NC(=O)[C@@H]2CCCN2C(=O)[C@H](CCCNC(=N)N)NC(=O)[C@H](CC(=O)O)NC(=O)[C@H](C)N(C)C(=O)[C@H](Cc2ccc(Cl)c(Cl)c2)NC(=O)[C@H](C)N(C)C(=O)[C@H](Cc2ccc(-c3ccccc3)cc2)NC(=O)[C@H]([C@@H](C)O)NC(=O)[C@H]([C@@H](C)O)NC(=O)[C@H](CO)NC1=O
notes: also called 1-14; Ex. No. 1-14

Bridge positions count the residues as written; N and C are the ends. Square brackets hold non-standard residues; d marks the D form. Phe(3,4-Cl2) = N[C@@H](Cc1ccc(Cl)c(Cl)c1)C(=O)O; Phe(4-CF3) = N[C@@H](Cc1ccc(C(F)(F)F)cc1)C(=O)O; Bip = N[C@@H](Cc1ccc(-c2ccccc2)cc1)C(=O)O; Phe(3-F) = N[C@@H](Cc1cccc(F)c1)C(=O)O; NMeF = CN[C@@H](Cc1ccccc1)C(=O)O; NMeA = CN[C@@H](C)C(=O)O

In the experiment the target is T1, Human PCSK9 Alexa Fluor 647 (human, UniProt Q8NBP7 31-692, limits assumed, Alexa Fluor 647 label (site not stated)).
T1 construct: Labelled tracer of the TR-FRET assay, 16 nM stock; also called proprotein convertase subtilisin/kexin type 9
T1 sequence (Q8NBP7 31-692 limits assumed): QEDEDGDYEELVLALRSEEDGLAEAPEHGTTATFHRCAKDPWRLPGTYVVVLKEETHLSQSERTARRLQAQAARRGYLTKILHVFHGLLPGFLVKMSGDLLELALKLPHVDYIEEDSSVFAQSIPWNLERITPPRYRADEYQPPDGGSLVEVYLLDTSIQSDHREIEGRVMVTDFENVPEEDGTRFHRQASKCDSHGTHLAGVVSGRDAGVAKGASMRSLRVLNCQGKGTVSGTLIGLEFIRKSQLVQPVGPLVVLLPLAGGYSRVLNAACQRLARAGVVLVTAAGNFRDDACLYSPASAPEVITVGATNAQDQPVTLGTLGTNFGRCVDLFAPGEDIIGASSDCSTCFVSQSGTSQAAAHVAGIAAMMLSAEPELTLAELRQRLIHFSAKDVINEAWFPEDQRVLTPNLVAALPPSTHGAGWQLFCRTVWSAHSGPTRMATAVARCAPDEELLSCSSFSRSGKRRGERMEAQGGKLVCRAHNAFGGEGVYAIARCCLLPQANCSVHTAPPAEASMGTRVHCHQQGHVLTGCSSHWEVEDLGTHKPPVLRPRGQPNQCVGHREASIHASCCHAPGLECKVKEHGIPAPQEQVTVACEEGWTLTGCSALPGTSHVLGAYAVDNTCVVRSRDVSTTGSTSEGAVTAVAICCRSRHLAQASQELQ
Put plainly: TR-FRET competition: PCSK9-Alexa Fluor 647 vs LDLR ECD-Eu kryptate. The procedure: A Proxi plate-low volume assay plate was used for the assay. […] Following a 30 minute incubation, 5 uL of 4 nM Human LDLR extracellular domain-Europium Kryptate was added and the mixture was incubated for an additional 2 hours.
The TR-FRET signal was measured on an EnVision or PheraStar instrument with a 60 μs delay, 330 nm excitation and 665 nm emission (FRET), and 330 nm excitation and 615 nm (Europium). The FRET ratio (FRET/Europium) was used for calculations.
In turn, B1 displayed an IC50 of 3 nM and a Maximum % inhibition of 35%. With B2, the half-inhibitory concentration (IC50) is 410 nM and the Maximum % inhibition stood at 60%. In the same order, the values of B3 are 12 nM and 97%. In the same order, the values of B4 are 4 nM and 60%. B5 came in with a half-maximal inhibitory concentration (IC50) of 2.3 nM and a Maximum % inhibition of 58%. In the same order, the values of B6 are 12 nM and 53%. Molecule B7 showed an IC50 of 1.3 nM. Turning to B8, the IC50 stood at 3.6 nM and the Maximum % inhibition was found to be 55%. In the same order, the values of B9 are 1.2 nM and 49%.

By IC50 is commonly meant the point on the concentration scale where inhibition reaches its midpoint. Read a high IC50 as a need for much substance.

Values taken from patent US20220024981A1 (Novartis, published 2022).
